{
  "source": "paper doi:10.1101/634816",
  "key": {"AtARF5-DBD [1]": {"target": "T1, AtARF5-DBD (Arabidopsis thaliana, UniProt P93024 1-390)", "T1 sequence": "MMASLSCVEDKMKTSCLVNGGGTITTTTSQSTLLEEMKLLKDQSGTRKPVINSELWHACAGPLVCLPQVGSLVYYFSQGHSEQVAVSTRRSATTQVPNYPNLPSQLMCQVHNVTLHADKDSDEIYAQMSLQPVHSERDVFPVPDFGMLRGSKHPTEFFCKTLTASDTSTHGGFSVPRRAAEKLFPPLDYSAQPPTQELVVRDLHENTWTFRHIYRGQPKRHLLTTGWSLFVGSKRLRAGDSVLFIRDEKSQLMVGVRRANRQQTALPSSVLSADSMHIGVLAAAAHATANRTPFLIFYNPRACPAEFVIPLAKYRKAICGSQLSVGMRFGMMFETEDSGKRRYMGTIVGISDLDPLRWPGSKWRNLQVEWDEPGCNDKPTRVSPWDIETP", "assay": "Ni-NTA pull-down with SYBR Gold fluorescence"}, "AtARF5-DBD [2]": {"target": "T1, AtARF5-DBD", "assay": "Ni-NTA pull-down with SYBR Gold fluorescence", "remark": "listed apart in the source"}},
  "note": "Like-named read-outs stand apart in the source and are kept apart here.",
  "data": [
    {"binder": "ER7-GG (dsDNA) DNA 1: CCGGTAGGTTGTCGGCCAAAGGCCGACAACCGGTAGG DNA 2: CCTACCGGTTGTCGGCCTTTGGCCGACAACCTACCGG", "values": [
      {"measurement": "binding result", "setting": "AtARF5-DBD [1]", "result": "binds"}
    ]},
    {"binder": "ER7 (dsDNA) DNA 1: CCGGTAGGTTGTCTCCCAAAGGGAGACAACCGGTAGG DNA 2: CCTACCGGTTGTCTCCCTTTGGGAGACAACCTACCGG", "values": [
      {"measurement": "binding result", "setting": "AtARF5-DBD [2]", "result": "binds"}
    ]}
  ]
}
